Measured values: article PMC4306385 (Archives of biochemistry and biophysics, 2014)

Target: wild-type cardiac actin (ACTC), filaments (UniProt P68032 1-377)
Test: co-sedimentation

B1: N-terminal C0C2 fragment of cardiac myosin binding protein-C (cMyBP-C) (domain or fragment)
chain: MPEPGKKPVSAFNKKPRSAEVTAGSAAVFEAETERSGVMVRWQRDGSDITANDKYGLAAEGKRHTLTVRDASPDDQGSYAVIAGSSKVKFDLKVTEPAPPEKAESEVAPGAPEEVPAPATELEESVSSPEGSVSVTQDGSAAEHQGAPDDPIGLFLMRPQDGEVTVGGSIVFSARVAGASLLKPPVVKWFKGKWVDLSSKVGQHLQLHDSYDRASKVYLFELHITDAQTTSAGGYRCEVSTKDKFDSCNFNLTVHEAIGSGDLDLRSAFRRTSLAGAGRRTSDSHEDAGTPDFSSLLKKRDSFRRDSKLEAPAEEDVWEILRQAPPSEYERIAFQHGVEACHRPLKRLKGMKQDEKKSTAFQKKLEPAYQVNKGHKIRLTVELADPDAEVKWLKNGQEIQMSGSKYIFESVGAKRTLTISQCSLADDAAYQCVVGGEKCSTELFVKEP
Kd: 5.02 µM | stoichiometry N: 0.76 mol/mol actin
